Data on 1 substance can be found in patent US20110243928A1.

Values joined by “and” are separate entries in the source; they are usually repeats but may differ in a detail not shown here. Identical values can stand only once.

The target in experiment [1] is Negative control 20 mer peptide (Mimotopes). The experiment is described as follows: 16 mer peptide ELISA control well, control antibody diluted 4-fold. Background: ELISA stands for enzyme-linked immunosorbent assay.
Experiment [2] has as its target Positive control 20 mer peptide (Mimotopes). The experiment is described as above.
Experiment [3] concerns the target Negative control 20 mer peptide (Mimotopes). The experiment is described as follows: 16 mer peptide ELISA control well, control antibody diluted 16-fold.
Experiment [4] deals with Positive control 20 mer peptide (Mimotopes). Described as above.
Experiment [5] has as its target Negative control 20 mer peptide (Mimotopes). The experiment is described as follows: 16 mer peptide ELISA control well, control antibody diluted 32-fold.
In experiment [6] the target is Positive control 20 mer peptide (Mimotopes). The experiment is described as above.

In the case of “Control Ab (Supplied with Mimotopes custom order) (antibody)”, the absorbance at 490 nm in experiment [1] was 0.077 A490 and 0.072 A490; in experiment [2], 1.5 A490 and 1.55 A490; in experiment [3], 0.08 A490 and 0.082 A490; in experiment [4], 1.2 A490 and 1.21 A490; in experiment [5], 0.072 A490 and 0.103 A490; in experiment [6] it was 0.739 A490 and 0.976 A490.
